Reference: paper doi:10.1101/2021.05.31.446396 (bioRxiv, 2021)
Numbering of substitutions follows the chain as printed. In names and notes the source's numbering stands.

B1: D3 domain of EccCb1 (349-580 residues), wild type (domain or fragment)
chain: EIPIGLRETDLTPAHCHMHTNPHLLIFGAAKSGKTTIAHAIARAICARNSPQQVRFMLADYRSGLLDAVPDTHLLGAGAINRNSASLDEAVQALAVNLKKRLPPTDLTTAQLRSRSWWSGFDVVLLVDDWHMIVGAAGGMPPMAPLAPLLPAAADIGLHIIVTCQMSQAYKATMDKFVGAAFGSGAPTMFLSGEKQEFPSSEFKVKRRPPGQAFLVSPDGKEVIQAPYIEPP
B2: D2 domain of EccCb1 (35-316 residues), wild type (domain or fragment)
chain: NPVPLNELIARDRRQPLRFALGIMDEPRRHLQDVWGVDVSGAGGNIGIGGAPQTGKSTLLQTMVMSAAATHSPRNVQFYCIDLGGGGLIYLENLPHVGGVANRSEPDKVNRVVAEMQAVMRQRETTFKEHRVGSIGMYRQLRDDPSQPVASDPYGDVFLIIDGWPGFVGEFPDLEGQVQDLAAQGLAFGVHVIISTPRWTELKSRVRDYLGTKIEFRLGDVNETQIDRITREIPANRPGRAVSMEKHHLMIGVPRFDGVHSADNLVEAITAGVTQIASQHTE
B3: D2 domain of EccCb1 (35-316 residues), K90A mutant (domain or fragment)
chain: B2 chain with K56A
B4: D2 domain of EccCb1 (35-316 residues), Q87A mutant (domain or fragment)
chain: B2 chain with Q53A
B5: D2 domain of EccCb1 (35-316 residues), S91A mutant (domain or fragment)
chain: B2 chain with S57A
B6: D2 domain of EccCb1 (35-316 residues), T92A mutant (domain or fragment)
chain: B2 chain with T58A

Target: the molecule itself
Assay: SEC

Protein	stoichiometry N
B1	2
B2	2
B3	2
B4	2
B5	2
B6	2
